This series addresses Carcinoembryonic antigen (CEA) (UniProt P06731 35-685). The series can be described thus: electrochemical aptasensor (CV, DPV); immobilized aptamer; current falls with CEA; LOD 7.6 ng/mL (not a Kd); 0.05 M PBS pH 7.0, 0.1 M KCl, 5 mM [Fe(CN)6]3-/4-; temperature not stated.

Sequence of Carcinoembryonic antigen (CEA) (P06731 35-685): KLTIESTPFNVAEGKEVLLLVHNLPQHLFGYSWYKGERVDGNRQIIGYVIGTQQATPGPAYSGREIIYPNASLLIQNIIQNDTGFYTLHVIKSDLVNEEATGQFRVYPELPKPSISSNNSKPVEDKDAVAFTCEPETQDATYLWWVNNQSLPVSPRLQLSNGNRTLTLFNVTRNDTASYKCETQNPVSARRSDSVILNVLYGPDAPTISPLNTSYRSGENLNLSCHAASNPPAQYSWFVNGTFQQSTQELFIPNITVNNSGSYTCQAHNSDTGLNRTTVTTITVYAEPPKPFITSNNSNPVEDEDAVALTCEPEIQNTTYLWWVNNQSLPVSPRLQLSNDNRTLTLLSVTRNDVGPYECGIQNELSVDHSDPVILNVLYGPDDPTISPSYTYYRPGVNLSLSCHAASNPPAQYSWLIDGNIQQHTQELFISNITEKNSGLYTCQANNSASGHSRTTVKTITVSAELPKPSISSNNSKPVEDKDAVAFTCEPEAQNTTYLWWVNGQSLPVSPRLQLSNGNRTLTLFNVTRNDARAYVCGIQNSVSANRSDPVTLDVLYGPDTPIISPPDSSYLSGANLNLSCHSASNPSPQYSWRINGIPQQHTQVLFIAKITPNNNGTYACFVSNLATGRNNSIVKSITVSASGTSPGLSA

B1: CEA aptamer (ssDNA)
DNA: GTGACGCTCCTAACGCTGACTCAGGTGCAGTTCTCGACTCGGTCTTGATGTGGGTCCTGTCCGTCCGAACCAATC
modifications: 5'-NH2
Regarding B1, the binding result is “binds”.
